# Experimental data as given in publication PMC4927390.
# Target: PpsR2-mVenus-CAAX (membrane-bound) (Rhodopseudomonas palustris)
# Test: translocation assay
substance,measurement,value
"BphP1-mCherry, transiently expressed in HeLa cells (natural protein)",decrease of mCherry fluorescence in cytoplasm after 3 min of 740 nm illumination,25%
